Two molecules from US20240226163A1 (Regeneron, published 2024) can be followed below.

For experiment [1], the target named is T1, HLA-A*02:01 presenting MAGE-A4 286-294 peptide (…) (human).
T1 construct: On peptide-pulsed T2 cells
Description: flow cytometry, peptide-pulsed T2 cells. For orientation: A flow cytometer gives signals particle by particle.
Description: Samples were run on an Intellicyt iQue flow cytometer (Intellicyt) and results were analyzed using Forecyte analysis software (Intellicyte) to calculate the mean fluorescent intensity (MFI) after gating for live cells. MFI values were plotted in Graphpad Prism using a four-parameter logistic equation over a 12-point response curve to calculate EC₅₀ values. The secondary antibody alone (i.e. no primary antibody) for each dose-response curve is also included in the analysis as a continuation of the three-fold serial dilution and is represented as the lowest dose. The signal to noise (S/N) was determined by taking the ratio of the highest MFI on the dose response curve to the MFI in the secondary alone wells.

The target of experiment [2] is T2, HLA-A*02:01 presenting CCDC36 417-426 peptide (…) (human).
T2 construct: On peptide-pulsed T2 cells
Description: flow cytometry, peptide-pulsed T2 cells.

Experiment [3] addresses T3, HLA-A*02:01 presenting FAT4 4053-4062 peptide (…) (human).
T3 construct: On peptide-pulsed T2 cells
As to the kind of experiment: flow cytometry, peptide-pulsed T2 cells.

Experiment [4] addresses T4, HLA-A*02:01 presenting CELSR3 1594-1603 peptide (…) (human).
T4 construct: On peptide-pulsed T2 cells
As to the kind of experiment: flow cytometry, peptide-pulsed T2 cells.

Experiment [5] addresses T5, HLA-A*02:01 presenting PAPPA2 307-316 peptide (…) (human).
T5 construct: On peptide-pulsed T2 cells
As to the kind of experiment: flow cytometry, peptide-pulsed T2 cells.

Experiment [6] addresses T6, HLA-A*02:01 presenting SCL25A19 111-120 peptide (…) (human).
T6 construct: On peptide-pulsed T2 cells
Description: flow cytometry, peptide-pulsed T2 cells.

Experiment [7] has as its target T7, HLA-A*02:01 presenting LPIN2 823-832 peptide (…) (human).
T7 construct: On peptide-pulsed T2 cells
Description: flow cytometry, peptide-pulsed T2 cells.

The target in experiment [8] is T8, HLA-A*02:01 presenting THBS3 116-125 peptide (…) (human).
T8 construct: On peptide-pulsed T2 cells
Description: flow cytometry, peptide-pulsed T2 cells.

For experiment [9], the target named is T9, HLA-A*02:01 presenting MAGE-A10 254-263 peptide (…) (human).
T9 construct: On peptide-pulsed T2 cells
As to the kind of experiment: flow cytometry, peptide-pulsed T2 cells.

In experiment [10] the target is T2, HLA-A*02:01 presenting CCDC36 417-426 …. Description: flow cytometry, peptide-pulsed T2 cells, 100 nM antibody.
Description: (§1) Samples were run on an IntelliCyt iQue flow cytometer (Intellicyt) and results were analyzed using Forecyte analysis software (Intellicyt) to calculate the mean fluorescent intensity (MFI) after gating for live cells. MFI values were plotted in Graphpad Prism using a four-parameter logistic equation over a 12-point response curve to calculate EC50 values. The secondary antibody alone (i.e., no primary antibody) for each dose-response curve was also included in the analysis as a continuation of the three-fold serial dilution and was represented as the lowest dose. The signal to noise (S/N) was determined by taking the ratio of the highest MFI on the dose response curve to the MFI in the secondary-alone wells.
For experiment [11], the target named is T3, HLA-A*02:01 presenting FAT4 4053-4062 …. Described as above.
Description: as §1
The target in experiment [12] is T4, HLA-A*02:01 presenting CELSR3 1594-1603 …. Described as above.
Description: as §1
In experiment [13] the target is T5, HLA-A*02:01 presenting PAPPA2 307-316 …. The description is as above.
Description: as §1
Experiment [14] has as its target T6, HLA-A*02:01 presenting SCL25A19 111-120 …. Described as above.
Description: as §1
Experiment [15] addresses T7, HLA-A*02:01 presenting LPIN2 823-832 …. The experiment is described as above.
Description: as §1
For experiment [16], the target named is T8, HLA-A*02:01 presenting THBS3 116-125 …. The description is as above.
Description: as §1
Experiment [17] addresses T10, HLA-A*02:01 presenting MAGE-A4 230-239 peptide (…) (human).
T10 construct: On peptide-pulsed T2 cells
The description is as above.
Description: as §1

The target in experiment [18] is T11, HLA-A*02:01 presenting MAGE-A8 232-241 peptide (…) (human).
T11 construct: On peptide-pulsed T2 cells
Described as above.
Description: as §1

The target in experiment [19] is T9, HLA-A*02:01 presenting MAGE-A10 254-263 …. Described as above.
Description: as §1
The target in experiment [20] is T10, HLA-A*02:01 presenting MAGE-A4 230-239 …. As to the kind of experiment: flow cytometry, peptide-pulsed T2 cells.
Description: as §1

B1: mAbM31339N (antibody, V domains shown)
VH: QVQLVESGGGLVKPGGSLRLSCAASGFTFSEYYLTWIRQAPGKGLDWIAYISSSGYNIYYADSVKDRFTISRDNGNNSLFLQMNNLRAEDTAVYFCAREGVTDGMDVWGQGTTVTVSS
VL: DIQMTQSPSSLSASVGDRVTITCRASQSIDTFLNWYQQKPGKVPKLLIYAASNLESGVPSRFSGSGSGTVFTLTISRLQPEDFATYYCQQSYSIPPITFGQGTRVEIK
notes: Human variable regions with a mouse constant region (detected with anti-mouse Fc secondary; its isotype control is mIgG2a); also called mAb31339N
As to B1, it took 1.7 nM to reach a half-maximal effect in experiment [1] (EC50).

B2: mAbM34852N (antibody, V domains shown)
VH: EVQLLESGGGLVQPGGSLRLTCAASGFTFRSYAMSWVRQAPGKGLEWVSTISGNSDSTYYADSVKGRFTISRENSKNTLYLQMNSLRAEDTAVYYCAKDLHITMVRGAIPADVFDIWGQGTMVTVSS
VL: not shown
notes: Mouse constant region (detected with anti-mouse Fc secondary)
B2: the binding result in experiment [2], in [3], in experiment [4], in [5], in experiment [6] and in experiment [7] was “no binding (tested: 100 nM)” in each case. Moreover, the binding result in experiment [8] and in experiment [9] was “no binding (tested: 100 nM)” throughout. The “Antibody Binding Ratio (pulsed cell MFI/Unpulsed cell MFI)” value in experiment [10] amounted to 1; in experiment [11], 1; in experiment [12] it was 0.8; in [13], 0.9; in experiment [14] it was 0.8; in experiment [15], 0.9. The “Antibody Binding Ratio (pulsed cell MFI/Unpulsed cell MFI)” value worked out at 1 in [16], 513 in experiment [17], 870 in [18] and 0.9 in experiment [19]. For the same molecule, in experiment [20], the concentration giving a half-maximal response (EC50) (in general, the concentration giving half of the maximal effect) was 4.7 nM.
